Earlier results as cited in patent US5861377A, “Antistasin type serine protease inhibitors” (Novartis AG, priority 1994, dated 1999).

Columns and labels:
Trypsin = biological target: T1, Trypsin (Bos taurus, UniProt P00760); conditions: bovine trypsin; data from Dunwiddie et al.
T1 sequence (P00760 24-246): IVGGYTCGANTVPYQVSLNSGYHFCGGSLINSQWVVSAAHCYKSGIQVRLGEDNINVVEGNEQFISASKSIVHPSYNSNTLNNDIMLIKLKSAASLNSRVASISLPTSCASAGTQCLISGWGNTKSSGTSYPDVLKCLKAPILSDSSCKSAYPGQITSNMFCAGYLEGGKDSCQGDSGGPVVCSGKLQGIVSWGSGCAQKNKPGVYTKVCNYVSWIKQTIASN

Factor Xa = Factor Xa (Homo sapiens, UniProt P00742); conditions: data from Dunwiddie et al.
Sequence of Factor Xa (P00742 235-488 limits assumed): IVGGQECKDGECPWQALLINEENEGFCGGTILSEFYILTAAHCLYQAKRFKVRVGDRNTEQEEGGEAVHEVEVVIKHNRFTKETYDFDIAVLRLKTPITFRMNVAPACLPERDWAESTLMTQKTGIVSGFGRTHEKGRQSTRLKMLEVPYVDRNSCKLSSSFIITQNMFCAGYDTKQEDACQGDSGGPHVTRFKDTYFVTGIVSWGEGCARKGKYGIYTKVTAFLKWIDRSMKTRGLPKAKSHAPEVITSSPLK
Sequence of Factor Xa (P00742 41-179 partner limits assumed): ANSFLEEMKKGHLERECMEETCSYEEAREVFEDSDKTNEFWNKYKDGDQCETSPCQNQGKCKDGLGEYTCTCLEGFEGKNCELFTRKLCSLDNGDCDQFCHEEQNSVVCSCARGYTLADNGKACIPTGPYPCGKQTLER

B1: Antistasin: cysteine-rich serine proteinase inhibitor of 119 amino acids from the Mexican leech Haementeria officinalis; factor Xa inhibitor (protein)
chain: EGPFGPGCEEAGCPEGSACNIITDRCTCSGVRCRVHCPHGFQRSRYGCEFCKCRKEPMKATCDISECPEGMMCSRKTNKCDCKIDINCRKTCPNGLKRDKGCEYCECRFKRKLIPRLS
For B1, the IC50 (Trypsin) is listed as 5 nM and the IC50 (Factor Xa) is listed as 1 nM.
